Test results reported in US20220016249A1.

Experiments:
[1] = biological target: IL-2 receptor signaling complex on primary human NK cells and CD8+ T cells (IL-2Rβγ) (human) (UniProt P14784); assay: cell-based or functional assay; parameters: unit not given beside the values
[2] = biological target: IL-2 receptor signaling complex on primary human Treg cells (IL-2Rα expressing; IL-2Rαβγ) (human) (UniProt P01589); assay: cell-based or functional assay; parameters: unit not given beside the values
IL-2 receptor signaling complex on primary human Treg cells (IL-2Rα expressing; IL-2Rαβγ) (human), sequence (P01589 22-272, chain 1 of 3): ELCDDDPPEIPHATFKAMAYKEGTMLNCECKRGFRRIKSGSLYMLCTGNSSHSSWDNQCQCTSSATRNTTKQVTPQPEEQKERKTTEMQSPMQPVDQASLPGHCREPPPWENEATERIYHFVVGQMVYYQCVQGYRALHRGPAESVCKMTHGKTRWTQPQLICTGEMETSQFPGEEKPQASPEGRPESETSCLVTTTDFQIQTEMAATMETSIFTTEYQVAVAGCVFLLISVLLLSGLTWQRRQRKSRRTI
IL-2 receptor signaling complex on primary human Treg cells (IL-2Rα expressing; IL-2Rαβγ) (human), sequence (P14784 27-551, chain 2 of 3, further chain): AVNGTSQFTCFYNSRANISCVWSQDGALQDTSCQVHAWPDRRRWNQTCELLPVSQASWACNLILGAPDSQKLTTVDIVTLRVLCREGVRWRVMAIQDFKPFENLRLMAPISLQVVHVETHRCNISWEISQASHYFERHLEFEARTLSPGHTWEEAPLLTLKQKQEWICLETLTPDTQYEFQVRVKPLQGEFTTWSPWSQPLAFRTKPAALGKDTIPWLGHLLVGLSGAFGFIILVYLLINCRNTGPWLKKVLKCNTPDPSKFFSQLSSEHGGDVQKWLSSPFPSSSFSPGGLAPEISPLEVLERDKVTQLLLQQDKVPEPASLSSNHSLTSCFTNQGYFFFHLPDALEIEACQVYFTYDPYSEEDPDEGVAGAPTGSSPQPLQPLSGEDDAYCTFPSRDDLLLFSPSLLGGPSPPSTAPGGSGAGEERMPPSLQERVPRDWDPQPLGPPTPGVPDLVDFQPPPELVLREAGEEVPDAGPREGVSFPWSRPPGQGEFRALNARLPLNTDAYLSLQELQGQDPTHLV
IL-2 receptor signaling complex on primary human Treg cells (IL-2Rα expressing; IL-2Rαβγ) (human), sequence (P31785 23-369, chain 3 of 3, further chain): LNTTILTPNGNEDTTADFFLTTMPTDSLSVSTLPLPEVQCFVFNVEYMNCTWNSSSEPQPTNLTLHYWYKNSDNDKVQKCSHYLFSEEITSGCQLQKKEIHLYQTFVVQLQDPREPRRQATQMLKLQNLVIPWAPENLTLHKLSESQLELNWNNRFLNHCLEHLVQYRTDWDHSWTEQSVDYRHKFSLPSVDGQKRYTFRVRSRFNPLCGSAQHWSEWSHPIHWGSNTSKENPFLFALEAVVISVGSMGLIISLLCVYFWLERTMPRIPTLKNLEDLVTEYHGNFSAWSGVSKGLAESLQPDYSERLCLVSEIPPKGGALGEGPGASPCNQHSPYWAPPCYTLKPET

IL-2 receptor signaling complex on primary human NK cells and CD8+ T cells (IL-2Rβγ) (human), sequence (P14784 27-551, chain 1 of 2): as the sequence (P14784 27-551, chain 2 of 3, further chain) above
IL-2 receptor signaling complex on primary human NK cells and CD8+ T cells (IL-2Rβγ) (human), sequence (P31785 23-369, chain 2 of 2, further chain): as the sequence (P31785 23-369, chain 3 of 3, further chain) above
S127_30kD, sequence (P60568 other isoform, or with tags, fused parts or gaps limits assumed): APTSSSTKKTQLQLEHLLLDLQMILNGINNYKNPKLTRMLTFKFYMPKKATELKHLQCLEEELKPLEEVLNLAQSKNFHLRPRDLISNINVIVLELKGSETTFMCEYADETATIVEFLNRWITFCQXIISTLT

“N88R (from UniProt P60568 21-153) (ligand)” showed an EC50 for pSTAT5 signaling, CD8+ T cells [1] of 1.5e+07, an EC50 for pSTAT5 signaling, NK cells [1] of 2.31e+06 and an EC50 for pSTAT5 signaling, Treg cells [2] of 11100.

In the case of “N88R/D109_30kD (from UniProt P60568 21-153) (ligand)”, the EC50 for pSTAT5 signaling, CD8+ T cells [1] is reported as 1.25e+07, the EC50 for pSTAT5 signaling, NK cells [1] is reported as 2.78e+06 and the EC50 for pSTAT5 signaling, Treg cells [2] is reported as 176000.

“S127_30kD (from UniProt P60568 21-153) (ligand)” gave an EC50 for pSTAT5 signaling, Treg cells [2] of 150.

“V91K (from UniProt P60568 21-153) (ligand)” showed an EC50 for pSTAT5 signaling, CD8+ T cells [1] of 102000, an EC50 for pSTAT5 signaling, NK cells [1] of 20500 and an EC50 for pSTAT5 signaling, Treg cells [2] of 142.
